Molecular target: the molecule itself
Experiment: crystal structure; apo PaIMPDH, sitting-drop vapour diffusion, 0.2 M sodium acetate pH 4.5, 40% MPD, room temperature; space group I4, one subunit in the asymmetric unit, tetramer by the crystallographic fourfold axis; 2.25 Å

B1: Pseudomonas aeruginosa inosine 5′-monophosphate dehydrogenase (enzyme, UniProt Q9HXM5 1-489, looked up)
chain: MLRISQEALTFDDVLLIPGYSEVLPKDVSLKTRLTRGIELNIPLVSAAMDTVTEARLAIAMAQEGGIGIIHKNMGIEQQAAEVRKVKKHETAIVRDPVTVTPSTKIIELLQMAREYGFSGFPVVEQGELVGIVTGRDLRVKPNAGDTVAAIMTPKDKLVTAREGTPLEEMKAKLYENRIEKMLVVDENFYLRGLVTFRDIEKAKTYPLASKDEQGRLRVGAAVGTGADTGERVAALVAAGVDVVVVDTAHGHSKGVIERVRWVKQTFPDVQVIGGNIATAEAAKALAEAGADAVKVGIGPGSICTTRIVAGVGVPQISAIANVAAALEGTGVPLIADGGIRFSGDLAKAMVAGAYCVMMGSMFAGTEEAPGEIELFQGRSYKSYRGMGSLGAMSGSQGSSDRYFQDASAGAEKLVPEGIEGRVPYKGALSAIVHQLMGGLRAAMGYTGSADIQQMRTQPQFVRITGAGMAESHVHDVQITKEAPNYRVG
notes: Inosine 5′-monophosphate dehydrogenase of Pseudomonas aeruginosa, full-length gene PA3770, amino acids 1-489, synthesised and codon-optimised for E. coli; Modified pET15b: N-terminal His tag followed by a TEV protease cleavage site; The His tag was still present at size-exclusion chromatography; The model holds only residues 1-91, 205-370 and 426-467; also called PaIMPDH; IMPDH; not shown: His …
stoichiometry N: 4
